# Laboratory results from paper PMC5531588, “Staphylococcus aureus single-stranded DNA-binding protein SsbA can bind but cannot stimulate PriA helicase”.
# Legend:
# [1] = target: Staphylococcus aureus single-stranded DNA-binding protein SsbA (S. aureus subsp. aureus ED98); assay: SEC; purified SaSsbA (2 mg/mL) on Superdex 200 prep grade in Buffer B (20 mM HEPES, 100 mM NaCl, pH 7.0), calibrated with proteins of known molecular weight
# [2] = target: Staphylococcus aureus PriA helicase (S. aureus); assay: SPR; SaPriA immobilised on CM5 chip, Biacore T200, 293 K, 40 mM Tris, 200 mM NaCl, 0.05% Tween-20, pH 8.0; analyte injected 120 s at 30 uL/min; 1:1 (Langmuir) model
# SaSsbA = SaSsbA (Staphylococcus aureus subsp. aureus ED98, UniProt A0A0D1JHQ1 1-167); assay: EMSA; 100 mM NaCl; EMSA: 20 mM Tris-HCl pH 8.0, 100 mM NaCl (or 0.4 M NaCl), 1.7 nM DNA, 25 C, 30 min; native 8% PAGE in TBE at 4 C; settings: protein: recombinant; chain copies: 4; label: 32P (5' end, T4 PNK); single strand
Molecule,stoichiometry N [1],Kd [2] [nM],apparent K (half saturation) (SaSsbA) [nM]
Staphylococcus aureus single-stranded DNA-binding protein SsbA (natural protein),4,46,
TTTTTTTTTTTTTTTTTTTTTTTTTTTTTT (ssDNA) [dT30],,,186 ± 20
TTTTTTTTTTTTTTTTTTTTTTTTTTTTTTTTTTTTTTTT (ssDNA) [dT40],,,90 ± 5
TTTTTTTTTTTTTTTTTTTT (ssDNA) [dT20],,,292 ± 28
